Consider one protein from paper PMC8225329, “Molecular and Mechanistic Characterization of PddB, the First PLP-Independent 2,4-Diaminobutyric Acid Racemase Discovered in an Actinobacterial D-Amino Acid Homopolymer Biosynthesis” (Frontiers in Microbiology, 2021).

Substrate in data set [1]: NCC[C@@H](N)C(=O)O
As to the kind of experiment: initial-velocity racemase assay, FDLA (Marfey) LC-MS; Lineweaver-Burk. The note with it: D to L direction, no cofactor, 100 mM TAPS-NaOH pH 8.5, 30°C. The data set is classed as biochemical, Streptoalloteichus hindustanus. The source says:
(§1) initial-velocity racemase assay, FDLA (Marfey) LC-MS; Lineweaver-Burk on PddB

Substrate in data set [2]: NCC[C@H](N)C(=O)O
The description is as above. The note with it: L to D direction, no cofactor, 100 mM TAPS-NaOH pH 8.5, 30°C. The data set is classed as biochemical, Streptoalloteichus hindustanus.
Excerpt: as §1

B1: PddB (Streptoalloteichus hindustanus) (protein)
chain: MSDQHNQVLDSELTAFRERVVEGVRFDTLRFCIMHGDGNVIMIVDERLSGLAAESVTSTLARELCQSFTVPKVDGVAFVRPTVSPLRMTYFERDGTHAQMCGNALRCLTRYGVERGYLSTEDSVETDDGVKRVSFVDGEARAALGPGREYQQVRDNWYFAFSGLPHLVVVMDDLDAFNAVNVRVDGAKLAHDEELCRQLNHPEGLHVNYLHRGEDHIAIRTFEVGVEDETKACGTGVAATGYIAHRAWGMPYPLRVRVPGGVMTAEDGEHGLTISGVTGYLFTEDETPVANVFQRSVL
notes: full length, C-terminal His6 tag, pET-21b(+), E. coli Rosetta 2 (DE3), Ni-NTA; 33 kDa; monomer; C-terminal domain given as 163-295
With B1, in data set [1], the Km (in general, the substrate concentration at which the rate is half of its maximum) was determined as 6.1 ± 1.0 mM; the Vmax (commonly the rate approached at saturating substrate) amounted to 136 µmol/min/mg; the Vmax/Km is 22200 µL/min/mg; the kcat (commonly the maximal rate divided by the concentration of active sites) was 75 ± 5 s⁻¹. The kcat/Km (in general, the turnover number divided by the Michaelis constant) in data set [1] came to 12200 M⁻¹ s⁻¹. In data set [2], the Km worked out at 10.1 ± 1.9 mM, the Vmax was determined as 210 µmol/min/mg, the Vmax/Km was 20800 µL/min/mg and the kcat was found to be 116 ± 12 s⁻¹. Moreover, the kcat/Km in data set [2] is 11400 M⁻¹ s⁻¹.
